This note sets out measurements from patent US20080311122A1, “Antagonists of Hmgb1 and/or Rage and Methods of Use Thereof” (Medimmune, LLC, priority 2005, published 2008).

To fix the notation:
T1: recombinant HMG1 (Homo sapiens, UniProt P09429)
T1 construct: made in house; host or cells: E. coli
T1 sequence (P09429 1-215): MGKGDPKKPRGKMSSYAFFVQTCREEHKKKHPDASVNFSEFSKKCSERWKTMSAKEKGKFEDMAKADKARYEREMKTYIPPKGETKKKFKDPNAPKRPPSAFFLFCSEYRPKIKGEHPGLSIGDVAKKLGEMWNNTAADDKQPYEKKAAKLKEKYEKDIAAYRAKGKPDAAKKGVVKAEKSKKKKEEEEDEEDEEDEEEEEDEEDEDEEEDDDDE

T2: HMG1 peptides (Homo sapiens, UniProt P09429)
T2 sequence (P09429 91-169 P98L): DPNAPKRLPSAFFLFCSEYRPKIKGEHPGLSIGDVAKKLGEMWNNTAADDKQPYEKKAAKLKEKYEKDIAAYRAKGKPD

T3: HMG1 peptides (Homo sapiens, UniProt P09429)
T3 sequence (P09429 150-183): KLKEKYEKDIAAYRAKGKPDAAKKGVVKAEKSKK

B1: S17: human anti-HMG1 antibody; VL/VH aa SEQ ID NO: 70/72 (antibody, listed as Homo sapiens, V domains shown)
VH: EVQLLESGGGLVQPGGSLRLSCAASGFTFSYYDMHWVRQAPGKGLEWVSRISPSGGYTWYADSVKGRFTISRDNSKNTLYLQMNSLRAEDTAVYYCTRGRYTSGWHEYFDPWGQGTLVTVSS
VL: AQDIQMTQSPSSLSASVGDRVTITCRASQSIGTYLNWYQQKPGTAPKVLIYAASSLQSGVPSRFSGSGSGTDFTLTISSLQPEDFSTYYCQQSYNTPRTFGQGTKLEIK
B2: G2: human anti-HMG1 IgG1 from Fab phage display library; VL/VH aa SEQ ID NO: 30/32 (antibody, listed as Homo sapiens, V domains shown)
VH: EVQLLESGGGLVQPGGSLRLSCAASGFTFSWYKMQWVRQAPGKGLEWVSGISPSGGSTAYADSVKGRFTISRDNSKNTLYLQMNSLRAEDTAVYYCAKMGLFNTGNSYVDYWGQGTLVTVSS
VL: AQSELTQPPSVSEAPGQRVTISCSGSTSNIGNNAVIWYQQLPGKAPKLLIYYDDLLPSGVSDRFSGSKSGTSGSLAISGLQSEDEADYYCASWDDNLNGPLFGGGTKLTVL
B3: G20: human anti-HMG1 antibody; VL/VH aa SEQ ID NO: 46/48 (antibody, listed as Homo sapiens, V domains shown)
VH: EVQLLESGGGLVQPGGSLRLSCAASGFTFSWYDMFWVRQAPGKGLEWVSWISPSGGYTKYADSVKGRFTISRDNSKNTLYLQMNSLRAEDTAMYYCARSGLDYYDSSGYLDAFDIWGQGTMVTVSS
VL: AQDIQMTQSPSSVSASVGDRVTITCRASQDVSIWLAWYQQKPGKAPKLLIFGASRLQSGVPSRFSGSRSGADFTLTIDSVQPEDFASYYCQQADSFPLTFGGGTKVEIK
B4: S10: human anti-HMG1 antibody; VL/VH aa SEQ ID NO: 58/60 (antibody, listed as Homo sapiens, V domains shown)
VH: EVQLLESGGGLVQPGGSLRLSCAASGFTFSWYDMWWVRQAPGKGLEWVSWIVPSGGITAYADSVKGRFTISRDNSKNTLYLQMNSLRAEDTATYYCARGNYGPSPFDYWGQGTLVTVSS
VL: AQDIQMTQSPGTLSLSPGERATLSCRATQSVRKNFLAWYQQKPGQAPRLLIYDASSRATGIPDRFSGSGSGTDFTLTISRLEPEDFAVYYCQQYGNSPIIFGQGTRLEIK
B5: G9: human anti-HMG1 antibody; VL/VH aa SEQ ID NO: 34/36 (antibody, listed as Homo sapiens, V domains shown)
VH: EVQLLESGGGLVQPGGSLRLSCAASGFTFSSYDMFWVRQAPGKGLEWVSRISPSGGYTYYADSVKGRFTISRDNSKNTLYLQMNSLRAEDTAVYYCARLRYFDSRGYAFDIWGQGTMVTVSS
VL: AQDIQMTQSPGTLSLSPGERATLSCRASQSVRSSYLAWYQQKPGQAPRLLIYGASTRATGIPDRFSGSGSGTDFTLTISRLEPEDFAVYYCQQYGTSRWTFGQGTKVEIK
B6: S16: human anti-HMG1 antibody, ATCC PTA-6259; VL/VH aa SEQ ID NO: 13/15 (antibody, listed as Homo sapiens, V domains shown)
VH: EVQLLESGGGLVQPGGSLRLSCAASGFTFSWYSMLWVRQAPGKGLEWVSYISPSGGFTNYADSVKGRFTISRDNSKNTLYLQMNSLRAEDTAVYYCARWDYNSGWYYDHWGQGTLVTVSS
VL: AQDIQMTQSPDTLSLSPGERATLSCRASQSVNSRNLAWYQQKPGQAPRLLIYGASTRATGIPDRFSGSVSGTEFTLTISSLQPDDFATYYCQQYNSYFTFGQGTKLEIK
B7: E11: human anti-HMG1 antibody, recognizes HMG1 A-Box; VL/VH aa SEQ ID NO: 24/26 (antibody, listed as Homo sapiens, V domains shown)
VH: EVQLLESGGGLVQPGGSLRLSCAASGFTFSRYQMNWVRQAPGKGLEWVSSISPSGGHTHYADSVKGRFTISRDNSKNTLYLQMNSLRAEDTAVYYCAKDGRQGKISTVDHWGQGTLVTVSS
VL: AQDIQMTQSPGTLSLSPGERATLSCRASQSVRSNFLAWYQQKPGQAPRLLIYGASRRASGIPDRFSGSGFGADFTLSISRLEPEDFAVYYCQQYGSSPNTFGQGSRVEIK
B8: S12: human anti-HMG1 antibody; VL/VH aa SEQ ID NO: 62/64 (antibody, listed as Homo sapiens, V domains shown)
VH: EVQLLESGGGLVQPGGSLRLSCAASGFTFSKYIMHWVRQAPGKGLEWVSGIVPSGGLTEYADSVKGRFTISRDNSKNTLYLQMNSLRAEDTATYYCAKEIFGQFDYWGQGTLVTVSS
VL: AQSALTQPPSVSAAPRQRVTISCSGSTSNIGNNAVTWYQYFPGKAPKLLIYSDNQRPSGVPDRFSGSKSGTSASLAITGLQAEDEADYYCQSYDRGLSVVFGGGTKLTVL

One data set has as its target T1, recombinant HMG1. Description: HMG1 binding affinity via BIAcore analysis.
Conditions: not given
How it is done: HMG1 Binding Affinity via BIAcore Analysis: All experiments were performed on a BIAcore 3000 instrument (BIAcore, Inc., Piscataway, N.J.). Briefly, each mAb was immobilized to a CM5 sensor chip using a standard amino coupling chemistry. Separately a reference (control) flow cell was also prepared. Two-fold, serial dilutions of HMG1 in instrument buffer were sequentially injected at a slow flow rate over the individual mAb and reference flow-cell surfaces. Following the binding and dissociation of HMG1, the mAbs surfaces were regenerated with a brief pulse of 1M NaCl-50 mM NaOH. At the end of each experiment, the binding curves were evaluated using a steady-state model available through the BIA evaluation software supplied by BIAcore, Inc. (Piscataway, N.J.).
Turning to B1, the Kd turned out to be 331 nM.
Same read-out and setting: the result for B2 reads 101 nM.
With B3, the equilibrium dissociation constant (Kd) worked out at 114 nM.

System in another data set: not listed separately
Description: Differential scanning calorimetry. The format is physicochemical. Set-up: unit: °C. The settings on record: in °C (unit assumed). How it is done:
Differential Scanning Calorimetry: Thermal melting temperatures (Tm) were measured with a VP-DSC (MicroCal, LLC) using a scan rate of 1.0° C./min and a temperature range of 25-120° C. A filter period of 8 seconds was used along with a 5 minute pre-scan thermostating. Samples were prepared by dialysis into 25 mM Histidine-HCl, pH 6 using Pierce dialysis cups (3.5 kD). Average Mab concentrations were 50 μg/mL as determined by A280. Melting temperatures were determined following manufacturer procedures using Origin software supplied with the system. Briefly, multiple baselines were run with buffer in both the sample and reference cell to establish thermal equilibrium. After the baseline was subtracted from the sample thermogram, the data were concentration normalized and fitted using the deconvolution function.
On to B1, for which the Tm stood at 90.0.
For the molecule B2, the Tm turned out to be 67.1.
On to B4, for which the Tm was 75.3.
On the same count and under the same terms, to B5 belongs 77.9; to B3, 71.2; to B6, 71.4.
On the same count and under the same terms, the result for B7 reads 66.3; that for B8, 66.9.

A further data set concerns mouse CLP model of sepsis. Description: Cecal ligation and puncture (CLP) model of sepsis. It is filed as in vivo. The note with it: percent protection, isotype control subtracted. How it is done: Anti-HMGB1 in Sepsis: To establish live intra-abdominal infection and sepsis, Balb/C mice (9-11 per group) were subjected to the CLP procedure as described previously (Fink and Heard, 1990, J Surg Res 49:186-196; Wichmann et al., 1996, J Surg Res 65, 109-114). After anesthesia with an intramuscular injection of ketamine (75 mg/kg, Fort Dodge Laboratories, Fort Dodge, Iowa) and xylazine (20 mg/kg, Bochringer Ingelheim), a 15-mm midline incision was made to expose the cecum. After ligation 5.0 mm from the tip, the cecal stump was punctured once with a 22-gauge needle, and small amount of stool (1-mm length) was extruded. The cecum was placed back into its normal intra-abdominal position, and the wound was closed with two layers of running suture. All animals received saline-solution (0.9% s.c., 20 ml/kg of body weight) resuscitation, and a single dose of antibiotic (0.5 mg of imipenem per mouse in 200 μl of sterile saline injected s.c.) (Primaxin, Merck) 30 min after surgery.
Anti-HMG1 antibodies or isotype control antibodies (50 μg/mouse in a 200 μl volume), were administered intraperitoneally at 24 and 48 hours, post surgery. In certain follow up experiments anti-HMG1 antibodies or isotype control antibodies (8 mg/kg) were administered intraperitoneally at 24 hours, post surgery (FIG. 11C-D). These experiments were blinded—the surgeons randomized the cages, and the encoded antibodies were dosed by another investigator. The survival of the mice was monitored twice daily for a total of 14 days. The survival curves for several representative experiments where the antibodies were delivered at 50 μg/mouse at times 24 and 48 are shown in FIGS. 11A and 11B. The survival curve generated by combining several representative experiments where the antibodies were delivered at 8 mg/kg 24 hours post surgery is shown in FIG. 11C. Several additional antibodies and the oligoclonal antibody pool were tested at 8 mg/kg administered 24 hours post surgery (FIG. 11D).
For the molecule B2, the “in vivo CLP” value is 60%.
With B6, the “in vivo CLP” value was 60-75%.
As to B7, the “in vivo CLP” value is reported as 35%.

The next data set has as its target T2, HMG1 peptides. Description: HMG1 B Box and peptide mapping ELISA. It is filed as binding. The settings on record: B Box peptide ELISA. How it is done:
(§1) HMG1 B Box and Peptide Mapping: Individual wells of a 96-well immunoplate (EIA/RIA plate, High binding, Costar) were coated with HMG1 B Box peptide amino acids 91-169 (FIG. 5A) or amino acids 150-183 (FIG. 5B) at 10 μg/ml in PBS at 4° C. overnight. The plate was then blocked with 4% milk powder dissolved in PBS at 37° C. for 1 hour. The blocking solution was removed and replaced with human anti-HMG1 antibodies at various concentrations (see FIGS. 5A-B). The plate was then washed (ELX-405 Plate washer, BIO-TEK) and secondary antibody (anti-human IgG-HRP, PIERCE) was added at a final concentration of 1:125,000 at 37° C. for 1 hour. HRP activity was detected with Sureblue HRP substrate (KPL). Plates were read at 450 nm using a Kinetic Microplate Reader (Molecular Devices). To obtain more detailed peptide mapping information, similar ELISA assays were performed using 16 biotinylated overlapping peptides spanning the HMGB1 protein from amino acid 1 to 215 as follows, maxisorp microtiter plate was coated with 2 μg/ml of NeutroAvidin (Pierce) overnight at 4° C. After washing and blocking with 1% BSA in PBS, the biotinylated peptides were individually added into the avidin coated wells and incubated for 30 min at room temperature. The serial diluted antibody G4, S16 and S6 at the initial concentration at 10 μg/ml were then transferred into the wells followed by adding mouse anti human IgG-HRP conjugate (Pierce). Detection was accomplished by adding 50 μl of tetramethylbenzidine (TMB) substrate (KPL) and the absorbance was read at […]. The peptides used were amino acids: 46-63; 61-78; 76-93; 91-108; 106-123; 136-153; 151-168; 166-183; 179-185; 181-198; and 196-215.
Turning to B2, the “binding to HMG1 peptide 91-169” value was “do not bind either of the HMG1 B Box peptides”.
The same measure, in the same setting: to B4 belongs “do not bind either of the HMG1 B Box peptides”; to B5, “do not bind either of the HMG1 B Box peptides”; to B6, “bind to HMG1 peptide 91-169”.
Consider B8, for which the “binding to HMG1 peptide 91-169” value was “bind to HMG1 peptide 91-169”.

The target of a further data set is T3, HMG1 peptides. Description: HMG1 B Box and peptide mapping ELISA. The format is binding. The note with it: B Box peptide ELISA. How it is done:
as §1
Consider B2, for which the “binding to HMG1 peptide 150-183” value is listed as “do not bind either of the HMG1 B Box peptides”.
For B4, the “binding to HMG1 peptide 150-183” value is “do not bind either of the HMG1 B Box peptides”.
For the molecule B5, the “binding to HMG1 peptide 150-183” value is “do not bind either of the HMG1 B Box peptides”.
As for B8, the “binding to HMG1 peptide 150-183” value is “only S12 binds to HMG1 peptide 150-183”.
